Residue numbers refer to the chain shown, from its start. Numbers in names are those of the source.
T1: Full length Sso1 WT (a.a. 1-290) (yeast (S. cerevisiae), UniProt P32867 1-290)
T1 sequence: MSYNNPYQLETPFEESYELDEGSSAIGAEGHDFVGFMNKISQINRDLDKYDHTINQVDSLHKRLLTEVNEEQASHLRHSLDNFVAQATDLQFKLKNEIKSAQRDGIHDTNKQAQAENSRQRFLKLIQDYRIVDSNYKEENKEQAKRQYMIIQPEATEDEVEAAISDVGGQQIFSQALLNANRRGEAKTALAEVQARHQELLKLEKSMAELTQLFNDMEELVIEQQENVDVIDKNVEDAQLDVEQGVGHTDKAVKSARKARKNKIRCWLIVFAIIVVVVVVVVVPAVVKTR

T2: binary Q-SNARE complex (full-length Sso1: Sec9) on vesicle membranes (yeast (S. cerevisiae), UniProt P32867;P40357)
T2 sequence 1: T1 sequence
T2 sequence 2: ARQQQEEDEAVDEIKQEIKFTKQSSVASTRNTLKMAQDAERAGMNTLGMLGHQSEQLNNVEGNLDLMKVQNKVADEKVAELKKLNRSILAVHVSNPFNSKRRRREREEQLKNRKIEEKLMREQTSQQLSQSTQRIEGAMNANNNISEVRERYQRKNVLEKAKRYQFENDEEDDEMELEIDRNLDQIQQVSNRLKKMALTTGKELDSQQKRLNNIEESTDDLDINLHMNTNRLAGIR

T3: binary Q-SNARE complex (Habc-truncated Sso1: Sec9) on vesicle membranes (yeast (S. cerevisiae), UniProt P32867;P40357)
T3 sequence 1: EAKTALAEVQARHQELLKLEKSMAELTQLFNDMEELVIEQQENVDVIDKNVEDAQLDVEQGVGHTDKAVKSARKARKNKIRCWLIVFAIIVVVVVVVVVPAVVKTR
T3 sequence 2: T2 sequence 2

B1: Cy3-labeled Sec9 (A442C) (domain or fragment)
chain: T2 sequence 2 with A27C
B2: Habc domain-truncated Sso1 (a.a. 185-290) (domain or fragment)
chain: T3 sequence 1
B3: Sec9 (a.a. 416-651) (domain or fragment)
chain: T2 sequence 2
B4: Snc2 WT (1-115) (natural protein)
chain: MSSSVPYDPYVPPEESNSGANPNSQNKTAALRQEIDDTVGIMRDNINKVAERGERLTSIEDKADNLAISAQGFKRGANRVRKQMWWKDLKMRMCLFLVVIILLVVIIVPIVVHFS

What was measured:
[1] = target: T1, Full length Sso1 WT (a.a. 1-290); test: single-molecule pull-down
Sec9 (a.a. 416-651) = target: B3; test: single-vesicle docking
[2] = target: T1, Full length Sso1 WT (a.a. 1-290); test: single-vesicle docking
[3] = target: T2, binary Q-SNARE complex (full-length …); test: single-vesicle docking
[4] = target: T3, binary Q-SNARE complex (Habc-truncated …); test: single-vesicle docking

## B1
[1]
  binding result: binds

## B2
Sec9 (a.a. 416-651)
  binding result: binds

## B3
[2]
  binding result: binds

## B4
[3]
  binding result: binds
[4]
  binding result: binds

— publication doi:10.1101/2022.01.16.476540 (bioRxiv, 2022)
